Assays:
[1] = biological target: Biarylitide crosslinking cytochrome P450Blt; assay: UV-visible absorbance titration
[2] = biological target: Cytochrome P450 RufO (Streptomyces atratus); assay: UV-visible absorbance titration

Nle-RYLH (Nle-1), BytA pentapeptide MRYLH with norleucine in place of Met
Kd [1]: 2100 nM | Kd [2]: 840 nM
